US20180087118

Key:
[1] = target: H3 31-41 K36me3 peptide, P68431
[2] = target: T1, H-TKQTARK(Me3)STGGKAPR-OH (TR-15, H3 3-17 K9me3 peptide)
T1 chain: TKQTARKSTGGKAPR

B1: Human KDM4B 1-348 (His6-tagged, expressed in E. coli from pET28a) (protein)
chain: MGSEDHGAQNPSCKIMTFRPTMEEFKDFNKYVAYIESQGAHRAGLAKIIPPKEWKPRQTYDDIDDVVIPAPIQQVVTGQSGLFTQYNIQKKAMTVGEYRRLANSEKYCTPRHQDFDDLERKYWKNLTFVSPIYGADISGSLYDDDVAQWNIGSLRTILDMVERECGTIIEGVNTPYLYFGMWKTTFAWHTEDMDLYSINYLHFGEPKSWYAIPPEHGKRLERLAIGFFPGSSQGCDAFLRHKMTLISPIILKKYGIPFSRITQEAGEFMITFPYGYHAGFNHGFNCAESTNFATLRWIDYGKVATQCTCRKDMVKISMDVFVRILQPERYELWKQGKDLTVLDHTRPT
With B1 the Km (µM), FDH-coupled demethylase assay [1] was 138 µM and the Km (µM), FDH-coupled demethylase assay [2] was 88.3 µM.

B2: Human KDM4A 1-347 (His6-tagged, expressed in E. coli from pET28a) (protein)
chain: MASESETLNPSARIMTFYPTMEEFRNFSRYIAYIESQGAHRAGLAKVVPPKEWKPRASYDDIDDLVIPAPIQQLVTGQSGLFTQYNIQKKAMTVREFRKIANSDKYCTPRYSEFEELERKYWKNLTFNPPIYGADVNGTLYEKHVDEWNIGRLRTILDLVEKESGITIEGVNTPYLYFGMWKTSFAWHTEDMDLYSINYLHFGEPKSWYSVPPEHGKRLERLAKGFFPGSAQSCEAFLRHKMTLISPLMLKKYGIPFDKVTQEAGEFMITFPYGYHAGFNHGFNCAESTNFATRRWIEYGKQAVLCSCRKDMVKISMDVFVRKFQPERYKLWKAGKDNTVIDHTLPT
B2 gave a Km (µM), FDH-coupled demethylase assay [1] of 170 µM and a Km (µM), FDH-coupled demethylase assay [2] of 92.5 µM.
